Data taken from article PMC3079231 (International journal of mass spectrometry, 2011).

Target: the molecule itself
Test: HDX-MS

Row | Protein | binding result
1 | Salmonella typhimurium AhpC T77I mutant (enzyme, oxidized form: intersubunit disulfide (Cys-46 to Cys-165); reduced form (TCEP): free thiols) SLINTKIKPFKNQAFKNGEFIEVTEKDTEGRWSVFFFYPADFTFVCPTELGDVADHYEELQKLGVDVYSVSTDTHFIHKAWHSSSETIAKIKYAMIGDPTGALTRNFDNMREDEGLADRATFVVDPQGIIQAIEVTAEGIGRDASDLLRKIKAAQYVAAHPGEVCPAKWKEGEATLAPSLDLVGKI | binds
2 | Salmonella typhimurium AhpC T77V mutant (enzyme, oxidized form: intersubunit disulfide (Cys-46 to Cys-165); reduced form (TCEP): free thiols) SLINTKIKPFKNQAFKNGEFIEVTEKDTEGRWSVFFFYPADFTFVCPTELGDVADHYEELQKLGVDVYSVSTDTHFVHKAWHSSSETIAKIKYAMIGDPTGALTRNFDNMREDEGLADRATFVVDPQGIIQAIEVTAEGIGRDASDLLRKIKAAQYVAAHPGEVCPAKWKEGEATLAPSLDLVGKI | binds
